Measured values: article PMC11767649

Target: rhRKIP C133A mutant, histidine-tagged (human) (UniProt P30086)
Assay: non-reducing SDS-PAGE; purified rhRKIP in sample loading buffer without β-mercaptoethanol or boiling; Coomassie Brilliant Blue staining or anti-His immunoblot

- stoichiometry N: 2
Substance: rhRKIP C133A mutant, histidine-tagged (from UniProt P30086 1-187) (natural protein)
